Data reported in paper doi:10.1101/2021.01.28.428596.

Target: RIR1-GFP (ProRIR1:RIR1-GFP in the rir1-1 mutant) (Arabidopsis thaliana) (UniProt C0LGG9)
Assay: FRET or BRET

UniProt C0LGG9, sequence (C0LGG9 27-1035, change not shown): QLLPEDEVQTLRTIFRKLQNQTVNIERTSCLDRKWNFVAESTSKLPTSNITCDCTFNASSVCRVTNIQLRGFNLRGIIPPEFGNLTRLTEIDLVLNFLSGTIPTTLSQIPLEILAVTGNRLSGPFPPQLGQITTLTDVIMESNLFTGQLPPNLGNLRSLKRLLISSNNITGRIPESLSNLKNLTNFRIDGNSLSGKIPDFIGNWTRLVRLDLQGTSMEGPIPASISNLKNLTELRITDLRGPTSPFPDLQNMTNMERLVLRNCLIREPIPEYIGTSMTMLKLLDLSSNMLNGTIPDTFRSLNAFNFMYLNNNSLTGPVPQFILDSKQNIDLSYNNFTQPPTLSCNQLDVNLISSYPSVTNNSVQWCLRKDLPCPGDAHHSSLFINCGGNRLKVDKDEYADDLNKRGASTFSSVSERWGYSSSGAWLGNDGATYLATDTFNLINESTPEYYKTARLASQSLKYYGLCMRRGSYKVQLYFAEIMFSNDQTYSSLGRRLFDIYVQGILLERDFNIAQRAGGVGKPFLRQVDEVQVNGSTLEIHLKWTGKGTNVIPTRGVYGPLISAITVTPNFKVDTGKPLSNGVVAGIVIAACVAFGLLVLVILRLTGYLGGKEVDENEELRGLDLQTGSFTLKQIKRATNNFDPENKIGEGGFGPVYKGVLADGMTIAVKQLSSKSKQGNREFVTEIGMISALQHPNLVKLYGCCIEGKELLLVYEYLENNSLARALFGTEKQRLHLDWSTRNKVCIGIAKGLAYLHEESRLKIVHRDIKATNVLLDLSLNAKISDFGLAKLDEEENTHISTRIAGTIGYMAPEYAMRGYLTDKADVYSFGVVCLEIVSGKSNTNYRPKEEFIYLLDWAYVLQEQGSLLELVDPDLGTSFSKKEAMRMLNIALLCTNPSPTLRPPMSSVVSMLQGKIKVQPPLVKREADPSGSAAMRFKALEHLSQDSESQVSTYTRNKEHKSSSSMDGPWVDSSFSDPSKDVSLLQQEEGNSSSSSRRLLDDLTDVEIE

In the case of “mCherry-REM1.2 (ProREM1.2-mCherry-REM1.2 in rir1-1/RIR1-GFP#3) (from UniProt P0CAP4 1-446) (natural protein)”, the GFP donor fluorescence lifetime with acceptor (τDA) is reported as 2.21 ns.
